Read-outs that look alike come from different tables or passages of the source.

Series [1] deals with rat model of muscle pain disorder caused by carrageenan. The series can be described thus: Effect of diclofenac coupled sodium hyaluronates in rat model of muscle pain disorder caused by carrageenan, 14 days (Test Example B7). The class given is in vivo. Conditions: for muscle pressure pain threshold value vs control group: 1% (w/v) i.m. 14 days before carrageenan, measured 3 h after carrageenan, FIG. 10; for duration of analgesic effect: 1% (w/v), intramuscular administration.
Experimental: The following were prepared as a test substance in which citric acid buffer is used as a solvent. As an inflammatory agent, 10 mg/mL carrageenan solution was used. […] A rat (Crj: SD line (SPF), male, 7-week old) was fixed dorsally under general anesthesia, and a broad region around the left gastrocnemius muscle was shaved using a shaver.

Series [2] concerns rat model of muscle pain disorder caused by silver nitrate. The series can be described thus: Effect of diclofenac coupled hyaluronic acids in rat model of muscle pain induced by silver nitrate (Test Example B5). In kind it is in vivo. Conditions: for duration of analgesic effect: 1% (w/v), intramuscular, observed for 3 days; for pain score vs control group / muscle pressure pain threshold value vs control group: i.m. 100 μL/site, 1% (w/v) in citric acid buffer, 24, 48, 72 h after administration; for pain score vs control group: FIG. 7; for muscle pressure pain threshold value vs control group: FIG. 8. The method, then:
As an inflammatory agent, 0.1 mol/L silver nitrate solution was filtered through a 0.22 μm filter and used. […] Accordingly, a rat model of muscle pain disorder caused by silver nitrate was prepared. […] At Hour 24 after the administration of 0.1 mol/L silver nitrate solution, the rats were divided into 3 groups, and each group was administered with either the test substance or citric acid buffer solution. […] Furthermore, ** and * represent, in the parametric Tukey test, **p<0.01 and *p<0.05 (vs Control), respectively. […] The length of move of the weight at which a pain-related behavior like avoidance is shown was read to one decimal place. This operation was repeated three times in total, and the median value was taken as the muscle pressure pain threshold value. […] Furthermore, *** represents, in the parametric Tukey test, ***p<0.001 (vs Control).

Series [3] in a line: Release test for conjugates obtained from Examples 26 to 28, citrate buffer pH 5.1 (Test Example A7). In kind it is physicochemical. The method, then: The amount of the dissociated diclofenac component which is present in a solution in an initial state (storage: Day 0) immediately after the dissolution was subjected to quantitative analysis based on ODS-HPLC. […] Meanwhile, the method for pre-treatment of HPLC sample is described below. Methanol (1 mL) was added to the stored solution (1 g). After dilution and addition of acetonitrile to 20 mL, the hyaluronic acid component was allowed to precipitate. The obtained supernatant was used as a HPLC sample. HPLC conditions are as follows. column: […] flow rate: 1 mL/min temperature: 35° C.

Series [4] deals with rat model of muscle pain disorder caused by carrageenan.
Experimental: (§2) As an inflammatory agent, 10 mg/mL carrageenan solution was used. As general anesthesia, inhalation of isoflurane (concentration of 3.0%, flow rate of 2.0 L/min) filled in a small animal anesthetizer (TK-4, manufactured by BioMachinery Co., Ltd.) was used.
(§3) A rat (Crj: SD line (SPF), male, 8-week old) was fixed dorsally under general anesthesia, and a broad region around the left gastrocnemius muscle was shaved using a shaver. The area for injection was sprayed with 70% alcohol for sterilization, and by using an injection tube applied with needle for subcutaneous insulin administration (MYJECTOR (registered trade mark), TERUMO CORPORATION), each test solution was injected (volume of 100 μL/site) for intramuscular administration into the left medial gastrocnemius muscle of a rat.
(§4) 10 Days after administering the test substance, each group was administered with 10 mg/mL carrageenan solution. As for the administration method, like the test substance, under inhalation of isoflurane, the region around the gastrocnemius muscle was sprayed with 70% alcohol for sterilization, and by using an injection tube applied with 29 G needle for subcutaneous insulin administration, it was injected (volume of 100 μL/site) for intramuscular administration into the left gastrocnemius muscle of a rat. […]
The nature of series [5]: Release test for conjugates obtained from Examples 18 to 21 (Test Example A5). The class given is physicochemical. Conditions: 0.1% in 20 mM sodium phosphate buffer pH 7.0, 36°C. From the text:
The amount of the dissociated diclofenac component which is present in an initial state (storage: Day 0) immediately after the dissolution, and the amount of diclofenac ester which has been forced to dissociate by using a base were subjected to quantitative analysis based on ODS-HPLC. […] From the ratio between the obtained amount of the dissociated diclofenac component at each time point and the amount of dissociated diclofenac component resulting from forced dissociation, the dissociation ratio (%) was calculated. For a pre-treatment of a HPLC sample, OASIS HLB was used, and a fraction eluted by acetonitrile was analyzed. HPLC conditions are as follows. column: […] temperature: 35° C.

The nature of series [6]: Release test for conjugates obtained from Examples 22 to 25 (Test Example A6). In kind it is physicochemical. Conditions: 0.1% in 20 mM sodium phosphate buffer pH 7.0, 36°C. From the text:
(§1) The amount of the dissociated diclofenac component which is present in an initial state (storage: Day 0) immediately after the dissolution, and the amount of diclofenac ester which has been forced to dissociate by using a base were subjected to quantitative analysis based on ODS-HPLC. […] From the ratio between the obtained amount of the dissociated diclofenac component at each time point and the amount of dissociated diclofenac component resulting from forced dissociation, the dissociation ratio (%) was calculated. For a pre-treatment of a HPLC sample, OASIS HLB was used, and a fraction eluted by acetonitrile was analyzed. HPLC conditions are as follows. column: […] flow rate: 1 mL/min temperature: 35° C.

Series [7] in a line: Release test for conjugates obtained from Examples 15 to 17 (Test Example A4). The class given is physicochemical. Conditions: 0.1% in 20 mM sodium phosphate buffer pH 7.0, 36°C.
Excerpt: as §1

Series [8] has as its system rat model of muscle pain disorder caused by carrageenan. Briefly: Effect of diclofenac coupled hyaluronic acid in rat model of muscle pain disorder caused by carrageenan, 10 days (Test Example B6). In kind it is in vivo.
Experimental: The following were prepared as a test substance in which citric acid buffer is used as a solvent.
as §2, §3, §4
A short description of series [9]: Release test for conjugates obtained from Examples 26 and 32 at 60, 40, 25°C (Test Example A9). The class given is physicochemical. The method, then:
The amount of the dissociated diclofenac component which is present in a solution in an initial state (storage: Day 0) immediately after the dissolution was subjected to quantitative analysis based on ODS-HPLC. Other aliquot was stored at 60° C., 40° C., or 25° C. immediately after the dissolution, the decomposition amount of diclofenac ester was similarly subjected to quantitative analysis after lapse of the each designated time. From the ratio between the obtained amount of the dissociated diclofenac component at each time point and the amount of dissociated diclofenac component resulting from forced dissociation, the dissociation ratio (%) was calculated. For a pre-treatment of a HPLC sample, OASIS HLB was used, and a fraction eluted by acetonitrile was analyzed. HPLC conditions are as follows. column: […] flow rate: 1 mL/min temperature: 35° C.

The mark [10] stands for this setting: 1% in sodium citrate buffer pH 5.1, 40°C, after 4 weeks.
Where [11] appears, read: 1% in sodium citrate buffer pH 5.1, immediately after dissolution.
The mark [12] stands for this setting: 1% (w/v), intramuscular administration.

With “Diclofenac(1-amino-2-propanol)-hyaluronic acid”, in series [1], the “muscle pressure pain threshold value vs control group” value is given as “increased in a significant sense” and the “duration of analgesic effect” value is 14 days. For the same substance, in series [2], the “duration of analgesic effect” value came out at 3 days, the “pain score vs control group” value is given as “improved in a significant sense” and the “muscle pressure pain threshold value vs control group” value is listed as “increased in a significant sense”.

For “Diclofenac(serine ethyl ester)-hyaluronic acid”, the results for the “Content of dissociated diclofenac (w/w %)” value in [3] (setting [10]) and in [3] (setting [11]) were 0.72 w/w % and 0.05 w/w %, respectively.

For “Diclofenac(threonine ethyl ester)-hyaluronic acid”, the “Content of dissociated diclofenac (w/w %)” value came out at 0.19 w/w % in series [3] (setting [10]) and 0.00 w/w % in [3] (setting [11]).

For “diclofenac (1-amino-2-propanol)-chondroitin sulfate [Example A4-1]”, the “muscle pressure pain threshold value vs control group” value in [4] (1% (w/v) i.m. 10 days before carrageenan, FIG. 12) was “increased in a significant sense”. Besides, in series [4] (setting [12]), the “duration of analgesic effect” value stood at 10 days.

For the substance “diclofenac (1-amino-3,3-dimethylbutan-2-ol)-chondroitin sulfate [Example A5-1]”, the diclofenac dissociation ratio in [5] (day 0) is given as 0.0%; in [5] (day 1) it was 0.0%; in series [5] (day 2), 0.1%; in [5] (day 4), 0.1%; in series [5] (day 8) it was 0.2%.

Consider “diclofenac (1-amino-3,3-dimethylbutan-2-ol)-hyaluronic acid [Example A6-1]”, for which the diclofenac dissociation ratio in series [6] (day 0) is 0.0%; in [6] (day 1), 0.1%; in series [6] (day 2), 0.2%; in series [6] (day 4), 0.4%; in [6] (day 8), 0.8%.

As to “diclofenac (2-amino-1-cyclohexylethan-1-ol)-chondroitin sulfate [Example A5-3]”, the diclofenac dissociation ratio is reported as 0.0% in series [5] (day 0); 0.1% in series [5] (day 1); 0.1% in series [5] (day 2); 0.2% in [5] (day 4); 0.4% in series [5] (day 8).

For “diclofenac (2-amino-1-cyclohexylethan-1-ol)-hyaluronic acid [Example A6-3]”, the diclofenac dissociation ratio turned out to be 0.0% in [6] (day 0); 0.2% in series [6] (day 1); 0.4% in series [6] (day 2); 0.7% in series [6] (day 4); 1.6% in series [6] (day 8).

“diclofenac (4-amino-3-hydroxybutyric acid ethyl ester)-chondroitin sulfate [Example A5-4]”: the diclofenac dissociation ratio in series [5] (day 0) was found to be 0.1%; in series [5] (day 1), 0.4%; in series [5] (day 2), 0.9%; in series [5] (day 4), 1.7%; in series [5] (day 8) it was 3.3%.

In the case of “diclofenac (4-amino-3-hydroxybutyric acid ethyl ester)-hyaluronic acid [Example A6-4]”, the diclofenac dissociation ratio is 0.2% in series [6] (day 0); 1.7% in [6] (day 1); 3.2% in series [6] (day 2); 6.2% in series [6] (day 4); 13.0% in [6] (day 8).

In the case of “diclofenac (serine ethyl ester)-chondroitin sulfate [Example A4-2]”, the diclofenac dissociation ratio is 0.0% in series [7] (day 0); 10.9% in series [7] (day 1); 16.9% in [7] (day 2); 31.9% in [7] (day 4); 42.2% in series [7] (day 8).

As to “diclofenac (threonine ethyl ester)-chondroitin sulfate [Example A4-3]”, the diclofenac dissociation ratio in series [7] (day 0) amounted to 0.1%; in series [7] (day 1), 2.0%; in series [7] (day 2) it was 4.0%; in series [7] (day 4) it was 7.2%; in series [7] (day 8) it was 10.5%.

As for “diclofenac-(2-aminoethanol)-hyaluronic acid”, the “muscle pressure pain threshold value vs control group” value is “increased in a significant sense” in [8] (1% (w/v) i.m. 10 days before carrageenan, measured 3 h after carrageenan, FIG. 9); “not increased” in [1]; “increased in a significant sense” in series [2]. For the same substance, the “duration of analgesic effect” value in series [8] (setting [12]) is on record as 10 days; in series [1], “less than 14 days”; in series [2] it was 3 days. Also, the diclofenac dissociation ratio is 1.3% in [9] (1% in sodium citrate buffer pH 5.1, 25°C, 0 y (year)); 6.2% in series [9] (1% in sodium citrate buffer pH 5.1, 25°C, 0.5 y (year)); 10.9% in series [9] (1% in sodium citrate buffer pH 5.1, 25°C, 1 y (year)); 1.3% in series [9] (1% in sodium citrate buffer pH 5.1, 40°C, 0 m (month)); 13.5% in series [9] (1% in sodium citrate buffer pH 5.1, 40°C, 4 m (month)); 18.2% in series [9] (1% in sodium citrate buffer pH 5.1, 40°C, 6 m (month)). Besides, the diclofenac dissociation ratio in series [9] (1% in sodium citrate buffer pH 5.1, 40°C, 9 m (month)) was determined as 23.7%; in series [9] (1% in sodium citrate buffer pH 5.1, 40°C, 12 m (month)) it was 28.2%; in series [9] (1% in sodium citrate buffer pH 5.1, 60°C, day 0), 1.3%; in series [9] (1% in sodium citrate buffer pH 5.1, 60°C, day 7) it was 8.1%; in series [9] (1% in sodium citrate buffer pH 5.1, 60°C, day 14), 12.7%; in series [9] (1% in sodium citrate buffer pH 5.1, 60°C, day 21) it was 16.4%. In addition, the “pain score vs control group” value in series [2] is reported as “improved in a significant sense”.

These data come from patent publication US10098962B2, “Glycosaminoglycan derivative and method for producing same” (Seikagaku Corporation, priority 2013, dated 2018).
